Measurements published in FireProtDB (doi:10.1021/ja046667t).
Values joined by “and” are separate entries in the source; they are usually repeats but may differ in a detail not shown here. Identical values can stand only once.

Conditions: pH 7, Thermal, CD, Phosphate 50 mM, whole UniProt chain shown

B1: Cytochrome c-552 wild type, P15452 (protein)
chain: MKKFLLVAVVGLAGITFANEQLAKQKGCMACHDLKAKKVGPAYADVAKKYAGRKDAVDYLAGKIKKGGSGVWGSVPMPPQNVTDAEAKQLAQWILSIK
- unfolding enthalpy (van 't Hoff) (Hydrogenobacter thermophilus (strain DSM 6534 / IAM 12695 / TK-6), 25 °C): 56.3 kcal/mol and 64.2 kcal/mol
- unfolding enthalpy (van 't Hoff) (Hydrogenobacter thermophilus (strain DSM 6534 / IAM 12695 / TK-6)): 109 kcal/mol and 140 kcal/mol

B2: Cytochrome c-551 wild type, P00099 (protein)
chain: MKPYALLSLLATGTLLAQGAWAEDPEVLFKNKGCVACHAIDTKMVGPAYKDVAAKFAGQAGAEAELAQRIKNGSQGVWGPIPMPPNAVSDDEAQTLAKWVLSQK
- unfolding free energy (Pseudomonas aeruginosa (strain ATCC 15692 / DSM 22644 / CIP 104116 / JCM 14847 / LMG 12228 / 1C / PRS 101 / PAO1), 25 °C): 7.7 kcal/mol and 19.5 kcal/mol
- unfolding enthalpy (van 't Hoff) (Pseudomonas aeruginosa (strain ATCC 15692 / DSM 22644 / CIP 104116 / JCM 14847 / LMG 12228 / 1C / PRS 101 / PAO1)): 70.5 kcal/mol and 159 kcal/mol
